Laboratory results as given in patent US20170056486A1.

Tests used:
[1] = biological target: HLA-A*24 (human); assay: UV-exchange ELISA (anti-b2m); yield >=75%
[2] = biological target: HLA-A*24 (human); assay: UV-exchange ELISA (anti-b2m); yield 50%-75%

For AFIETPIPLF, the peptide exchange yield [1] was greater than 75%.

Work on QYLDVLHAL yielded a peptide exchange yield [1] greater than 75%.

For QYLVHVNDL, the peptide exchange yield [1] was greater than 75%.

GYIKLINFI showed a peptide exchange yield [1] greater than 75%.

KYTEKLEEI gave a peptide exchange yield [2] of 50 to 75%.

With LYTETRLQF the peptide exchange yield [1] was greater than 75%.

Work on VYTPVASRQSL yielded a peptide exchange yield [2] of 50 to 75%.

Binder SYSEIKDFL has a peptide exchange yield [1] greater than 75%.

AYAANVHYL gave a peptide exchange yield [1] greater than 75%.

Work on SYLNEAFSF yielded a peptide exchange yield [1] greater than 75%.

KYIGNLDLL was tested, and the peptide exchange yield [1] was greater than 75%.

GYIRGSWQF was tested, and the peptide exchange yield [1] was greater than 75%.

TYIDTRTVF was tested, and the peptide exchange yield [1] was greater than 75%.

EYLHNCSYF was tested, and the peptide exchange yield [1] was greater than 75%.

For FYTLPFHLI, the peptide exchange yield [1] was greater than 75%.

SYLTWHQQI showed a peptide exchange yield [1] greater than 75%.

VYSSQFETI gave a peptide exchange yield [1] greater than 75%.

Work on KYPASSSVF yielded a peptide exchange yield [2] of 50 to 75%.

FFHEGQYVF showed a peptide exchange yield [1] greater than 75%.

Work on SYGTVSQI yielded a peptide exchange yield [1] greater than 75%.

Binder VFKSEGAYF has a peptide exchange yield [1] greater than 75%.

VYPFDWQYI showed a peptide exchange yield [1] greater than 75%.

For IYSVGAFENF, the peptide exchange yield [1] was greater than 75%.

In the case of YYTQYSQTI, the peptide exchange yield [1] is reported as greater than 75%.

For VYEAMVPLF, the peptide exchange yield [1] was greater than 75%.

Work on QYILAVPVL yielded a peptide exchange yield [1] greater than 75%.

AYVIAVHLF was tested, and the peptide exchange yield [1] was greater than 75%.

TYTFLKETF gave a peptide exchange yield [1] greater than 75%.

Work on RYFDVGLHNF yielded a peptide exchange yield [2] of 50 to 75%.

In the case of KQLDIANYELF, the peptide exchange yield [1] is reported as greater than 75%.

KYIDYLMTW gave a peptide exchange yield [1] greater than 75%.

AFPTFSVQL showed a peptide exchange yield [1] greater than 75%.

SYQVIFQHF was tested, and the peptide exchange yield [1] was greater than 75%.

RYHPTTCTI was tested, and the peptide exchange yield [1] was greater than 75%.

Binder TYNPNLQDKL has a peptide exchange yield [1] greater than 75%.

Binder KYGTLDVTF has a peptide exchange yield [1] greater than 75%.

IYISNSIYF gave a peptide exchange yield [1] greater than 75%.

With YYMELTKLLL the peptide exchange yield [1] was greater than 75%.

For TYLEKIDGF, the peptide exchange yield [1] was greater than 75%.

For SYGTILSHI, the peptide exchange yield [1] was greater than 75%.

For VYPHFSTTNLI, the peptide exchange yield [1] was greater than 75%.

IFTDIFHYL showed a peptide exchange yield [1] greater than 75%.

In the case of IYGEKTYAF, the peptide exchange yield [2] is reported as 50 to 75%.

With VYVPFGGKSMITF the peptide exchange yield [1] was greater than 75%.

For SYGTVSQIF, the peptide exchange yield [1] was greater than 75%.

In the case of LFITGGQFF, the peptide exchange yield [1] is reported as greater than 75%.

FYPQIINTF was tested, and the peptide exchange yield [1] was greater than 75%.

Work on QYLDGTWSL yielded a peptide exchange yield [1] greater than 75%.

Work on AYAQLGYLLF yielded a peptide exchange yield [1] greater than 75%.

VYIAELEKI was tested, and the peptide exchange yield [2] was 50 to 75%.

With VFIFKGNEF the peptide exchange yield [1] was greater than 75%.

Binder NYLDVATFL has a peptide exchange yield [1] greater than 75%.

Binder QYPFHVPLL has a peptide exchange yield [1] greater than 75%.

IYAGVGEFSF was tested, and the peptide exchange yield [1] was greater than 75%.

AFGQETNVPLNNF showed a peptide exchange yield [1] greater than 75%.

QYLEKYYNL showed a peptide exchange yield [1] greater than 75%.

For TFSDVEAHF, the peptide exchange yield [2] was 50 to 75%.

For KYGDFKLLEF, the peptide exchange yield [1] was greater than 75%.

Work on RFLMKSYSF yielded a peptide exchange yield [1] greater than 75%.

For TFITQSPLL, the peptide exchange yield [1] was greater than 75%.

In the case of VYGVPTPHF, the peptide exchange yield [1] is reported as greater than 75%.

With GYIEHFSLW the peptide exchange yield [1] was greater than 75%.

Binder RYLINSYDF has a peptide exchange yield [1] greater than 75%.

For RYPALFPVL, the peptide exchange yield [1] was greater than 75%.

Work on VFTTSSNIF yielded a peptide exchange yield [1] greater than 75%.

Work on VYMNVMTRL yielded a peptide exchange yield [1] greater than 75%.

QYTPHSHQF showed a peptide exchange yield [2] of 50 to 75%.

RYVFPLPYL was tested, and the peptide exchange yield [1] was greater than 75%.

For VFASLPGFLF, the peptide exchange yield [1] was greater than 75%.

RYLTISNLQF gave a peptide exchange yield [1] greater than 75%.

RYKPGEPITF showed a peptide exchange yield [2] of 50 to 75%.

Work on QYIEELQKF yielded a peptide exchange yield [2] of 50 to 75%.

IYKWITDNF gave a peptide exchange yield [1] greater than 75%.

AFADVSVKF showed a peptide exchange yield [1] greater than 75%.

For AYLPPLQQVF, the peptide exchange yield [2] was 50 to 75%.
